Experimental data taken from patent US10144929B2, “Polypeptide inhibitors of Smad3 polypeptide activities” (Mayo Foundation for Medical Education and Research, priority 2016, dated 2018).
No end group written: not given here.

Target: T1, pSmad3 (Mus musculus, UniProt Q8BUN5)
T1 construct: endogenous in cells; host or cells: AKR-2B cells
Experiment: Nuclear import of pSmad3 (nuclear fractions Western, immunofluorescence) in AKR-2B cells
Assay type: cell-based
Settings: 90 minutes transduction, TGFβ 5 ng/mL 1 hour
Description: FIGS. 1A-C. SH3 domain of sorting nexin 9 (SNX9) specifically binds pSmad3 and prevents nuclear import. (A) Cartoon depicting domains in full length (FL) SNX9 and constructs used for GST pull down assays. Lysates from AKR-2B cells untreated (−) or stimulated (+) for 45 minutes with 5 ng/mL TGFβ were incubated with GST beads or the indicated fusion polypeptides immobilized on GST beads. Bound polypeptides were eluted and assessed by Western analysis for pSmad3 or pSmad2. Cell lysate reflects signal obtained from 10 μg total protein. (B) AKR-2B cells were transduced for 90 minutes with the indicated concentrations of the TAT-SNX9(SH3) fusion polypeptides. […] Quantitation of nuclear pSmads was performed with Image J software and represents the mean+/−sd of two experiments (Right). […] Quantitation of nuclear Smad3 from 30 cells in each of two experiments (Right).
FIGS. 3A-E. Inhibition of Smad3 signaling by a defined region of the SH3 domain in SNX9. […] (B) Nuclear fractions were prepared and assessed as in FIG. 1B following transduction with the indicated TAT-SNX9(SH3) fusion polypeptide (Left). Quantitation (mean+/−sd) of nuclear pSmad2 or pSmad3 from 2 experiments (Right). (C) Immunofluorescence of nuclear Smad3 was determined as in FIG. 1C from 30 cells in each of two experiments in the absence (−) or presence (+) of 5 ng/mL TGFβ and the indicated TAT-SNX9(SH3) fusion polypeptide (1.5 μM). […]

T1 sequence (Q8BUN5 whole entry): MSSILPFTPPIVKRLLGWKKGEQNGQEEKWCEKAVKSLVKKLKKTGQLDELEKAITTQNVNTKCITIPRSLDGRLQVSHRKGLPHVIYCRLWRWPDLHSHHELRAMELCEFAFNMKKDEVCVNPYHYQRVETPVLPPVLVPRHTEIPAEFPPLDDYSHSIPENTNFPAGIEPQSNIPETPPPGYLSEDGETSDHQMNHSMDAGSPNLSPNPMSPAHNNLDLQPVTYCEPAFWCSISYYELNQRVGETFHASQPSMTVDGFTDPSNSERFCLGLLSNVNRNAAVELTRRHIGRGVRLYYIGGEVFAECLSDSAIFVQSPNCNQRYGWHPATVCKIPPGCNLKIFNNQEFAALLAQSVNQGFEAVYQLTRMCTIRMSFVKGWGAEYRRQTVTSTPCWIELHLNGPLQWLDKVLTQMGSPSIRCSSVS

TAT-containing polypeptide encoding amino acids 27-42 of SNX9: 16 mer TAT-SNX9(SH3) fusion polypeptide, SNX9 amino acids 27-42; probably SH3-2-2 (SEQ ID NO:34) (IITITNPDVGGGWLEG; also: TAT cell-penetrating peptide fusion; UniProt Q9Y5X1 27-42, looked up, fragment)
nuclear import of pSmad3: activity similar to that obtained with SB431542
